Assay results from patent US20070141139A1, “COMPOSITION FOR INTESTINAL DELIVERY” (priority 2000, published 2007).

How the values were obtained:
[1] = system: coho salmon; conditions: orally intubated with rbGH and antacid, 7-week trial; cited from earlier work
[2] = cited from earlier work
[3] = in vivo; cited from earlier work
[4] = in vivo; cited from earlier work; remark: listed apart in the source
[5] = in vivo; cited from earlier work; remark: listed apart in the source
[6] = system: salmonids; conditions: in vivo; cited from earlier work
[7] = system: rainbow trout; assay: Growth of rainbow trout after intraperitoneal injection of recombinant bST; type: in vivo, Oncorhynchus mykiss; conditions: IP, 20 μg bST/g live body weight weekly for 6 weeks; FIG. 4
Method: Intraperitoneal (IP) administration dose per fish weekly was 20 μg bST/g live body weight for 6 weeks.

[8] = system: proteolytic enzymes, enzyme extract of proximal small intestine; assay: In vitro proteolytic enzyme inhibition by feed ingredients (casein hydrolysis); type: biochemical, rainbow trout; conditions: increasing level of inhibitor inclusion; FIGS. 5-12
Method: • 1. Centrifuge Sorvall model • 2. Bench-top blender • 3. Dissecting material (scissors) • 4. Centrifuge bottle • 5. Disposable cuvettes for spectrophotometer • 6. Microcentrifuge tubes 1,5 ml • 7. Spectrophotometer • 8. Vortexer • 9. Microplates reader from Biorad • 10. 50 mM Tris-HCl pH=7.5 • 11. Commassie blue staining solution • 12. BSA (1 mg\ml) standard solution • 13. TCA 20% • 14. Rainbow trouts pancreatic and duodenal tissues • 15. 0.5% casein in 50 mM Tris-HCl pH=9 • 16. 50 mM Tris-HCl+CaCl2 10 mM pH=7.5 Enzyme Extract • 1. Rainbow trout were weighed and sacrificed. • 2. Dissection was performed to remove the proximal small intestine from the fish. • 3. After weighing, the tissues were homogenised in 50 mM Tris-HCl ph=7.5 (1:10 w\v). • 4. Centrifuge at 16000×g for 30 min at 4° C. • 5. Keep the supernatant. Aliquot and store them at −20 C for further use. • 6. Perform Commassie assay to measure the amount of protein present in the enzyme extract. Commassie Blue Stain Protocol • 1. Weigh 160 mg of BSA in 10 ml of […] Tris-HCl pH=7.5. • 2. […] Read at 655 nm with the microplate reader from Biorad. […] Centrifuge at 12000×g for 5 min and read at 280 nm. […] Centrifuge at 12000×g for 5 min and read at 280 nm. […] Centrifuge at 12000×g for 5 min and read at 280 nm. […] Centrifuge at 12000×g for 5 min and read at 280 nm. […] Centrifuge at 12000×g for 5 min and read at 280 nm. […]

CCCCCCCCC(=O)N(C)C[C@H](O)[C@@H](O)[C@H](O)[C@H](O)CO [Mega-9, reference compound]
growth performance compared to fish dosed with GH alone [1]: significantly increases growth performance
plasma HRP presence compared to controls ([2]; co-delivery with HRP): almost double

CC[C@@]1([C@@H]2O[C@@H]([C@H]3O[C@@](O)(CO)[C@H](C)C[C@@H]3C)C[C@@H]2C)CC[C@H]([C@]2(C)CC[C@]3(C[C@H](O)[C@@H](C)[C@@H]([C@@H](C)[C@@H](OC)[C@H](C)C(=O)O)O3)O2)O1 [monensin]
effect upon HRP absorption [3]: no effect upon HRP absorption

horseradish peroxidase: tracer protein, horseradish peroxidase type 1 (Sigma)
time to transport to the circulation after oral administration [4]: ≤ 1 h

human growth hormone: human growth hormone given with a suspension of sodium salicylate in oil
bioavailability (with reference to intravenous) [5]: 10-20%

B1: bovine GH (bGH): bovine growth hormone (protein, UniProt P01246 27-217, looked up)
Somatotropin: AFPAMSLSGLFANAVLRAQHLHQLAADTFKEFERTYIPEGQRYSIQNTQVAFCFSETIPAPTGKNEAQQKSDLELLRISLLLIQSWLGPLQFLSRVFTNSLVFGTSDRVYEKLKDLEEGILALMRELEDGTPRAGQILKQTYDKFDTNMRSDDALLKNYGLLSCFRKDLHKTETYLRVMKCRRFGEASCAF
increase in growth rate [6]: two to three-fold increase in growth rate

B2: recombinant bST: recombinant bovine somatotropin (Monsanto Co.) (protein, UniProt P01246 27-217, looked up)
Somatotropin: B1 Somatotropin
body weight gain [7]: significantly induces increased body weight gain

B3: soya bean trypsin inhibitor: enzyme inhibitor co-delivered with HRP to rainbow trout (protein, UniProt P01070 25-205, looked up)
Trypsin inhibitor A: DFVLDNEGNPLENGGTYYILSDITAFGGIRAAPTGNERCPLTVVQSRNELDKGIGTIISSPYRIRFIAEGHPLSLKFDSFAVIMLCVGIPTEWSVVEDLPEGPAVKIGENKDAMDGWFRLERVSDDEFNNYKLVFCPQQAEDDKCGDIGISIDHDDGTRRLVVSKNKPLVVQFQKLDKESL
oral absorption of HRP ([2]; in vivo, po): increased

B4: lyophylized ovalbumin: protease inhibitor component of the Oralject™ cocktail (protein, UniProt P01012 2-386, looked up)
Ovalbumin: GSIGAASMEFCFDVFKELKVHHANENIFYCPIAIMSALAMVYLGAKDSTRTQINKVVRFDKLPGFGDSIEAQCGTSVNVHSSLRDILNQITKPNDVYSFSLASRLYAEERYPILPEYLQCVKELYRGGLEPINFQTAADQARELINSWVESQTNGIIRNVLQPSSVDSQTAMVLVNAIVFKGLWEKAFKDEDTQAMPFRVTEQESKPVQMMYQIGLFRVASMASEKMKILELPFASGTMSMLVLLPDEVSGLEQLESIINFEKLTEWTSSNVMEERKIKVYLPRMKMEEKYNLTSVLMAMGITDVFSSSANLSGISSAESLKISQAVHAAHAEINEAGREVVGSAEAGVDAASVSEEFRADHPFLFCIKHIATNAVLFFGRCVSP
modifications: lyophilized
in vitro proteolytic enzyme inhibition [8]: affect to differing degrees the inhibition

B5: spray-dried ovalbumin: protease inhibitor component of the Oralject™ cocktail (protein, UniProt P01012 2-386, looked up)
Ovalbumin: B4 Ovalbumin
modifications: spray-dried
in vitro proteolytic enzyme inhibition [8]: affect to differing degrees the inhibition
